A word on the Kd: it is a measure of binding affinity in units of concentration.

The data set deals with TDP-43 RRM1-2 (UniProt Q13148 102-269). Kind of data set: BLI; BLI: 10 mM potassium phosphate pH 7.2, 150 mM KCl, 0.01% Tween20, 25 °C; biotin-RNA on streptavidin sensors, protein 20 nM-20 µM; PAINT in PBS. Conditions: protein: recombinant, tags: His6-SUMO tag cleaved (TEV). A general note: BLI is a label-free optical method that tracks binding on a fibre tip over time.
Chain of TDP-43 RRM1-2 (Q13148 102-269): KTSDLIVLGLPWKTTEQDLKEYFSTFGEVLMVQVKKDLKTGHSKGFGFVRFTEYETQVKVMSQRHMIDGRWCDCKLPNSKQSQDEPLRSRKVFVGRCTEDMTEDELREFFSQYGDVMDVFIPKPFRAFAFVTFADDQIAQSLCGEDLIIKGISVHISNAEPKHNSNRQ

B1: nApt-1 (ssRNA)
RNA: AGCAACACCG
Regarding B1, for the setting “label: 5' biotin”, the Kd is 1730 nM.

B2: Apt-1 (ssRNA)
RNA: CGGUGUUGCU
Take B2: the equilibrium dissociation constant (Kd) (label: 3' biotin, linear, single-stranded) is 100 ± 10 nM.
